B1: Mitochondrial-derived peptide MOTS-c (Homo sapiens), A0A0C5B5G6 (parent)
chain: MRWQEMGYIFYPRKLR
partner: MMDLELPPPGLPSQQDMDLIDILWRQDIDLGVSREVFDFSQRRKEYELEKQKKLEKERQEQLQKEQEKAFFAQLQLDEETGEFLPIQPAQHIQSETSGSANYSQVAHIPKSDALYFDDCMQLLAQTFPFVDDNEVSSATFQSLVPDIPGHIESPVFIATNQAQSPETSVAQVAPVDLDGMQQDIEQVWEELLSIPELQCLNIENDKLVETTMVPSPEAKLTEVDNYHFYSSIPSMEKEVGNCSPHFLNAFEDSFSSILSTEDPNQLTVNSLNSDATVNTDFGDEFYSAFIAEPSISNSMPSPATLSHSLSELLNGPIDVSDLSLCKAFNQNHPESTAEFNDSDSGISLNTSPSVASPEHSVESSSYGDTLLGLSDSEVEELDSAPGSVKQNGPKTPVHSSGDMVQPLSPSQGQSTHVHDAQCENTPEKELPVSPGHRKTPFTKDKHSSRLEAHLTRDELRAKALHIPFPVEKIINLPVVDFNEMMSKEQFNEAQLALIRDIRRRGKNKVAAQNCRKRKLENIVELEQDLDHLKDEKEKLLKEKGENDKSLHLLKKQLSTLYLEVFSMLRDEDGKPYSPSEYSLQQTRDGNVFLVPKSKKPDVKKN

Variants of: B1
Details: with nf2l2_human NFE2L2, Q16236

| Variant | effect of a mutation on the interaction |
| --- | --- |
| MRWQEMGYIFYPAAAA [R13A;K14A;L15A;R16A] | with no effect |

Reference: IntAct's records for PubMed 29983246
